Data reported in patent US20190374506A1 (BETH ISREAL DEACONESS MEDICAL CENTER, published 2019).

B1: PTEN K342/K344R mutant (enzyme, not shown: small tags and cut ends)
chain: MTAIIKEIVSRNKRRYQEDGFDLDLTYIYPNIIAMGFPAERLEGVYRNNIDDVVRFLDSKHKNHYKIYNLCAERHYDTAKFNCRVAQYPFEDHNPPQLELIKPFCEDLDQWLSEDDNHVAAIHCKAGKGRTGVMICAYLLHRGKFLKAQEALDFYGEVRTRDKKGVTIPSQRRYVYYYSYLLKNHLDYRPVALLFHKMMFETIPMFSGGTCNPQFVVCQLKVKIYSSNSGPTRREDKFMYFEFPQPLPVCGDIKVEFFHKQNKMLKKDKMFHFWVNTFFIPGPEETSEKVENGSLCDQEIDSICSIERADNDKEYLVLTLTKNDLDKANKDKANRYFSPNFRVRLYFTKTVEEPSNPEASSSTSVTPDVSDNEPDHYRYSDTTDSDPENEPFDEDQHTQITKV
notes: also called Myc-PTEN K342/K344R mutant; PTEN K342/K344R ubiquitination defective mutant
B2: Structural maintenance of chromosomes protein 1A (other)
chain: MGFLKLIEIENFKSYKGRQIIGPFQRFTAIIGPNGSGKSNLMDAISFVLGEKTSNLRVKTLRDLIHGAPVGKPAANRAFVSMVYSEEGAEDRTFARVIVGGSSEYKINNKVVQLHEYSEELEKLGILIKARNFLVFQGAVESIAMKNPKERTALFEEISRSGELAQEYDKRKKEMVKAEEDTQFNYHRKKNIAAERKEAKQEKEEADRYQRLKDEVVRAQVQLQLFKLYHNEVEIEKLNKELASKNKEIEKDKKRMDKVEDELKEKKKELGKMMREQQQIEKEIKEKDSELNQKRPQYIKAKENTSHKIKKLEAAKKSLQNAQKHYKKRKGDMDELEKEMLSVEKARQEFEERMEEESQSQGRDLTLEENQVKKYHRLKEEASKRAATLAQELEKFNRDQKADQDRLDLEERKKVETEAKIKQKLREIEENQKRIEKLEEYITTSKQSLEEQKKLEGELTEEVEMAKRRIDEINKELNQVMEQLGDARIDRQESSRQQRKAEIMESIKRLYPGSVYGRLIDLCQPTQKKYQIAVTKVLGKNMDAIIVDSEKTGRDCIQYIKEQRGEPETFLPLDYLEVKPTDEKLRELKGAKLVIDVIRYEPPHIKKALQYACGNALVCDNVEDARRIAFGGHQRHKTVALDGTLFQKSGVISGGASDLKAKARRWDEKAVDKLKEKKERLTEELKEQMKAKRKEAELRQVQSQAHGLQMRLKYSQSDLEQTKTRHLALNLQEKSKLESELANFGPRINDIKRIIQSREREMKDLKEKMNQVEDEVFEEFCREIGVRNIREFEEEKVKRQNEIAKKRLEFENQKTRLGIQLDFEKNQLKEDQDKVHMWEQTVKKDENEIEKLKKEEQRHMKIIDETMAQLQDLKNQHLAKKSEVNDKNHEMEEIRKKLGGANKEMTHLQKEVTAIETKLEQKRSDRHNLLQACKMQDIKLPLSKGTMDDISQEEGSSQGEDSVSGSQRISSIYAREALIEIDYGDLCEDLKDAQAEEEIKQEMNTLQQKLNEQQSVLQRIAAPNMKAMEKLESVRDKFQETSDEFEAARKRAKKAKQAFEQIKKERFDRFNACFESVATNIDEIYKALSRNSSAQAFLGPENPEEPYLDGINYNCVAPGKRFRPMDNLSGGEKTVAALALLFAIHSYKPAPFFVLDEIDAALDNTNIGKVANYIKEQSTCNFQAIVISLKEEFYTKAESLIGVYPEQGDCVISKVLTFDLTKYPDANPNPNEQ
B3: Isoform 2 of Structural maintenance of chromosomes protein 2 (other)
chain: MHIKSIILEGFKSYAQRTEVNGFDPLFNAITGLNGSGKSNILDSICFLLGISNLSQVRASNLQDLVYKNGQAGITKASVSITFDNSDKKQSPLGFEVHDEITVTRQVVIGGRNKYLINGVNANNTRVQDLFCSVGLNVNNPHFLIMQGRITKVLNMKPPEILSMIEEAAGTRMYEYKKIAAQKTIEKKEAKLKEIKTILEEEITPTIQKLKEERSSYLEYQKVMREIEHLSRLYIAYQFLLAEDTKVRSAEELKEMQDKVIKLQEELSENDKKIKALNHEIEELEKRKDKETGGILRSLEDALAEAQRVNTKSQSAFDLKKKNLACEESKRKELEKNMVEDSKTLAAKEKEVKKITDGLHALQEASNKDAEALAAAQQHFNAVSAGLSSNEDGAEATLAGQMMACKNDISKAQTEAKQAQMKLKHAQQELKNKQAEVKKMDSGYRKDQEALEAVKRLKEKLEAEMKKLNYEENKEESLLEKRRQLSRDIGRLKETYEALLARFPNLRFAYKDPEKNWNRNCVKGLVASLISVKDTSATTALELVAGERLYNVVVDTEVTGKKLLERGELKRRYTIIPLNKISARCIAPETLRVAQNLVGPDNVHVALSLVEYKPELQKAMEFVFGTTFVCDNMDNAKKVAFDKRIMTRTVTLGGDVFDPHGTLSGGARSQAASILTKFQELKDVQDELRIKENELRALEEELAGLKNTAEKYRQLKQQWEMKTEEADLLQTKLQQSSYHKQQEELDALKKTIEESEETLKNTKEIQRKAEEKYEVLENKMKNAEAERERELKDAQKKLDCAKTKADASSKKMKEKQQEVEAITLELEELKREHTSYKQQLEAVNEAIKSYESQIEVMAAEVAKNKESVNKAQEEVTKQKEVITAQDTVIKAKYAEVAKHKEQNNDSQLKIKELDHNISKHKREAEDGAAKVSKMLKDYDWINAERHLFGQPNSAYDFKTNNPKEAGQRLQKLQEMKEKLGRNVNMRAMNVLTEAEERYNDLMKKKRIVENDKSKILTTIEDLDQKKNQALNIAWQKVNKDFGSIFSTLLPGANAMLAPPEGQTVLDGLEFKVALGNTWKENLTELSGGQRQKQQNHTTG
B4: Isoform 2 of Putative RNA-binding protein 15 (other)
chain: MRTAGRDPVPRRSPRWRRAVPLCETSAGRRVTQLRGDDLRRPATMKGKERSPVKAKRSRGGEDSTSRGERSKKLGGSGGSNGSSSGKTDSGGGSRRSLHLDKSSSRGGSREYDTGGGSSSSRLHSYSSPSTKNSSGGGESRSSSRGGGGESRSSGAASSAPGGGDGAEYKTLKISELGSQLSDEAVEDGLFHEFKRFGDVSVKISHLSGSGSGDERVAFVNFRRPEDARAAKHARGRLVLYDRPLKIEAVYVSRRRSRSPLDKDTYPPSASVVGASVGGHRHPPGGGGGQRSLSPGGAALGYRDYRLQQLALGRLPPPPPPPLPRDLERERDYPFYERVRPAYSLEPRVGAGAGAAPFREVDEISPEDDQRANRTLFLGNLDITVTESDLRRAFDRFGVITEVDIKRPSRGQTSTYGFLKFENLDMSHRAKLAMSGKIIIRNPIKIGYGKATPTTRLWVGGLGPWVPLAALAREFDRFGTIRTIDYRKGDSWAYIQYESLDAAHAAWTHMRGFPLGGPDRRLRVDFADTEHRYQQQYLQPLPLTHYELVTDAFGHRAPDPLRGARDRTPPLLYRDRDRDLYPDSDWVPPPPPVRERSTRTAATSVPAYEPLDSLDRRRDGWSLDRDRGDRDLPSSRDQPRKRRLPEESGGRHLDRSPESDRPRKRHCAPSPDRSPELSSSRDRYNSDNDRSSRLLLERPSPIRDRRGSLEKSQGDKRDRKNSASAERDRKHRTTAPTEGKSPLKKEDRSDGSAPSTSTASSKLKSPSQKQDGGTAPVASASPKLCLAWQGMLLLKNSNFPSNMHLLQGDLQVASSLLVEGSTGGKVAQLKITQRLRLDQPKLDEVTRRIKVAGPNGYAILLAVPGSSDSRSSSSSAASDTATSTQRPLRNLVSYLKQKQAAGVISLPVGGNKDKENTGVLHAFPPCEFSQQFLDSPAKALAKSEEDYLVMIIVRGAS
B5: Monofunctional C1-tetrahydrofolate synthase (enzyme)
chain: SSGGGGGGGGGREGLLGQRRPQDGQARSSCSPGGRTPAARDSIVREVIQNSKEVLSLLQEKNPAFKPVLAIIQAGDDNLMQEINQNLAEEAGLNITHICLPPDSSEAEIIDEILKINEDTRVHGLALQISENLFSNKVLNALKPEKDVDGVTDINLGKLVRGDAHECFVSPVAKAVIELLEKSGVNLDGKKILVVGAHGSLEAALQCLFQRKGSMTMSIQWKTRQLQSKLHEADIVVLGSPKPEEIPLTWIQPGTTVLNCSHDFLSGKVGCGSPRIHFGGLIEEDDVILLAAALRIQNMVSSGRRWLREQQHRRWRLHCLKLQPLSPVPSDIEISRGQTPKAVDVLAKEIGLLADEIEIYGKSKAKVRLSVLERLKDQADGKYVLVAGITPTPLGEGKSTVTIGLVQALTAHLNVNSFACLRQPSQGPTFGVKGGAAGGGYAQVIPMEEFNLHLTGDIHAITAANNLLAAAIDTRILHENTQTDKALYNRLVPLVNGVREFSEIQLARLKKLGINKTDPSTLTEEEVSKFARLDIDPSTITWQRVLDTNDRFLRKITIGQGNTEKGHYRQAQFDIAVASEIMAVLALTDSLADMKARLGRMVVASDKSGQPVTADDLGVTGALTVLMKDAIKPNLMQTLEGTPVFVHAGPFANIAHGNSSVLADKIALKLVGEEGFVVTEAGFGADIGMEKFFNIKCRASGLVPNVVVLVATVRALKMHGGGPSVTAGVPLKKEYTEENIQLVADGCCNLQKQIQITQLFGVPVVVALNVFKTDTRAEIDLVCELAKRAGAFDAVPCYHWSVGGKGSVDLARAVREAASKRSRFQFLYDVQVPIVDKIRTIAQAVYGAKDIELSPEAQAKIDRYTQQGFGNLPICMAKTHLSLSHQPDKKGVPRDFILPISDVRASIGAGFIYPLVGTMSTMPGLPTRPCFYDIDLDTETEQVKGLF
B6: Cytoskeleton-associated protein 4 (other)
chain: MPSAKQRGSKGGHGAASPSEKGAHPSGGADDVAKKPPPAPQQPPPPPAPHPQQHPQQHPQNQAHGKGGHRGGGGGGGKSSSSSSASAAAAAAAASSSASCSRRLGRALNFLFYLALVAAAAFSGWCVHHVLEEVQQVRRSHQDFSRQREELGQGLQGVEQKVQSLQATFGTFESILRSSQHKQDLTEKAVKQGESEVSRISEVLQKLQNEILKDLSDGIHVVKDARERDFTSLENTVEERLTELTKSINDNIAIFTEVQKRSQKEINDMKAKVASLEESEGNKQDLKALKEAVKEIQTSAKSREWDMEALRSTLQTMESDIYTEVRELVSLKQEQQAFKEAADTERLALQALTEKLLRSEESVSRLPEEIRRLEEELRQLKSDSHGPKEDGGFRHSEAFEALQQKSQGLDSRLQHVEDGVLSMQVASARQTESLESLLSKSQEHEQRLAALQGRLEGLGSSEADQDGLASTVRSLGETQLVLYGDVEELKRSVGELPSTVESLQKVQEQVHTLLSQDQAQAARLPPQDFLDRLSSLDNLKASVSQVEADLKMLRTAVDSLVAYSVKIETNENNLESAKGLLDDLRNDLDRLFVKVEKIHEKV

Legend:
[1] = biological target: the molecule itself; test: gel filtration of HEK293 lysate, fractions on SDS-PAGE, anti-Myc blot
Procedure: 293 cells were transfected with the indicated expression vectors. After 24 hours, cells were washed with PBS, lysed and filtered through a 0.45 μm syringe filter. 500 μl of lysate (4 mg/ml) was loaded into a Superdex200 10/300 GL column (GE Lifesciences Cat. No. 17-5175-01). Tandem columns gel filtrations were performed by further attaching a series Superdex 75 10/300 GL column (GE Lifesciences Cat. No. 17-5174-01). Samples were separated in a Superdex75 column first, followed by a Superdex 200 column. Chromatography was performed by using anAKTA FPLC (GE Lifesciences Cat. No. 18-1900-26), and protein complexes were resolved and eluted with lysis buffer at 0.5 ml/minute, 500 μl per fraction. 40 μl aliquots of each fraction were separated by SDS-PAGE and western blot analysis was performed with the indicated antibodies. Before sample separation, molecular-weight resolution of the columns was estimated by running the Gel Filtration Calibration Kit (GE Lifesciences, #28-4038-42) to determine retention times on Coomassie-stained SDS-PAGE protein gels.

[2] = biological target: T1, HA-PTEN (human, UniProt P60484 1-403); test: anti-PTEN immunoprecipitation from DU145 cells transfected with HA-PTEN, SDS-PAGE, mass-spectrometric peptide sequencing of the bands (association in the precipitate)
T1 construct: Expressed in DU145 cells and immunoprecipitated with anti-PTEN antibody for mass spectrometry; also called exogenous PTEN; pcDNA3-HA-PTEN; not shown: HA tag
Text: FIG. 2A is a Western blot. Lysates from DU145 cells transfected with HA-PTEN were immunoprecipitated with an anti-PTEN antibody followed by mass-spectrometric peptide sequencing. WWP1 and NEDD4-1 were identified.
In order to identify the E3 ligases that induce PTEN atypical K27-linked poly-ubiquitination, exogenous PTEN was immunoprecipitated from DU145 cells, followed by identification of the proteins that interacted with PTEN by mass spectrometry (FIG. 2A; FIG. 18).

Binder | binding result [1] | binding result [2]
B1 | binds | –
B2 | – | binds
B3 | – | binds
B4 | – | binds
B5 | – | binds
B6 | – | binds
